T1: mouse CNTN4 overexpressed on 293F cells (mouse, UniProt Q69Z26 19-1000)
T1 construct: whole, on cells; Overexpressed on 293F cells; the construct is not described; also called Mouse CNTN4 cell; mouse antigen-overexpressing 293F cells
T1 sequence (looked up): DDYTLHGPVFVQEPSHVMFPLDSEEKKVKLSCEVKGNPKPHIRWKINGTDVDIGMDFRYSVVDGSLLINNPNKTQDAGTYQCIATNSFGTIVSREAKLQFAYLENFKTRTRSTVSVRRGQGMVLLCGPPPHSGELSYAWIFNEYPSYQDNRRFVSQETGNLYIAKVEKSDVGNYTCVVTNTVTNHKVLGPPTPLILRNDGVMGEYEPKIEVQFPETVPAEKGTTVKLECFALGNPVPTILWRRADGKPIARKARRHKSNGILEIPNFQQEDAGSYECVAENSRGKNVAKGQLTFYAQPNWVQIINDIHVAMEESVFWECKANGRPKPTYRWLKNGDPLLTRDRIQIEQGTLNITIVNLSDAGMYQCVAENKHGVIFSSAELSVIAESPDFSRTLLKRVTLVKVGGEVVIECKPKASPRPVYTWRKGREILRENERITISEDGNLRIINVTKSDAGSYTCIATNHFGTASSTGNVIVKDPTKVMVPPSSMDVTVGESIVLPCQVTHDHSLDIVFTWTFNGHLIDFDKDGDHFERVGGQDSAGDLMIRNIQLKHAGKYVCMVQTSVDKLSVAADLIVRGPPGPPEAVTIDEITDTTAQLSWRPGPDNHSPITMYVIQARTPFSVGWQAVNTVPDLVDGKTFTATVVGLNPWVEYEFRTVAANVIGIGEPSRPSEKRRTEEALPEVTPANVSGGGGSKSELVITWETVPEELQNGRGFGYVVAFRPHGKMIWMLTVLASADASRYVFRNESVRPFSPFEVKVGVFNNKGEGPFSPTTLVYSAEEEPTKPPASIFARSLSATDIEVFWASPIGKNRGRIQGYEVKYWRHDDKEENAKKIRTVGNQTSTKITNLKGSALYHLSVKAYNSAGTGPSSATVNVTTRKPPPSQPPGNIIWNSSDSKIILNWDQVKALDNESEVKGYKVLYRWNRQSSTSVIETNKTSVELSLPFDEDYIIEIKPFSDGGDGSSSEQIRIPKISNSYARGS


target: T1, mouse CNTN4 overexpressed on 293F cells; test: FACS, scFv periplasm on mouse CNTN4-overexpressing 293F cells, PE anti-His detection

Row | EC50 [µM] | Top MFI [MFI] | Binder
1 | 0.0202 | 2840 | A108 scFv (scFv, V domains shown) VH: not shown VL: ELTQDPAVSVALGQTVRITCSGSSGSYGWYQQKPGQAPVLVIYDNTNRPSGIPDRFSGSSSGNTASLTITGAQAEDEADYYCGGYDGSTDVFGGGTKLTVL
2 | 0.0294 | 2050 | A104 scFv (scFv, V domains shown) VH: not shown VL: ELTQDPAVSVALGQTVRITCSGSSGSYGWYQQKPGQAPVLVIYDNTNRPSGIPDRFSGSSSGNTASLTITGAQAEDEADYYCGGYDGSTDVFGGGTKLTVL
3 | 0.0173 | 2110 | A102 scFv (scFv, V domains shown) VH: not shown VL: ELTQDPAVSVALGQTVRITCSGSSGSYGWYQQKPGQAPVLVIYDNTNRPSGIPDRFSGSSSGNTASLTITGAQAEDEADYYCGGYDGSTDVFGGGTKLTVL
4 | 0.0104 | 4190 | A111 scFv (scFv, V domains shown) VH: not shown VL: ELTQDPAVSVALGQTVRITCSGSSGSYGWYQQKPGQAPVLVIYDNTNRPSGIPDRFSGSSSGNTASLTITGAQAEDEADYYCGGYDGSTDVFGGGTKLTVL
5 | 0.0083 | 2830 | A109 scFv (scFv, V domains shown) VH: not shown VL: ELTQDPAVSVALGQTVRITCSGSSGSYGWYQQKPGQAPVLVIYDNTNRPSGIPDRFSGSSSGNTASLTITGAQAEDEADYYCGGYDGSTDVFGGGTKLTVL
6 | 0.0076 | 2260 | A114 scFv (scFv, V domains shown) VH: not shown VL: ELTQDPAVSVALGQTVRITCSGSSGSYGWYQQKPGQAPVLVIYDNTNRPSGIPDRFSGSSSGNTASLTITGAQAEDEADYYCGGYWGSTDVFGGGTKLTVL
7 | 0.0325 | 1860 | A112 scFv (scFv, V domains shown) VH: not shown VL: ELTQDPAVSVALGQTVRITCSGRSGSYGWYQQKPGQAPVLVIYDNTNRPSGIPDRFSGSSSGNTASLTITGAQAEDEADYYCGGYDGSTDVFGGGTKLTVL
8 | 0.0458 | 1100 | A113 scFv (scFv, V domains shown) VH: not shown VL: ELTQDPAVSVALGQTVRITCSGSSGSYGWYQQKPGQAPVLVIYDNTNRPSGIPDRFSGSSSGNTASLTITGAQAEDEADYYCGGYRGSTDVFGGGTKLTVL
9 | 0.012 | 2740 | A103 scFv (scFv, V domains shown) VH: not shown VL: ELTQDPAVSVALGQTVRITCSGSSGSYGWYQQKPGQAPVLVIYDNTNRPSGIPDRFSGSSSGNTASLTITGAQAEDEADYYCGGYDGSTDVFGGGTKLTVL
10 | 0.0201 | 2150 | A110 scFv (scFv, V domains shown) VH: not shown VL: ELTQDPAVSVALGQTVRITCSGSSGSYGWYQQKPGQAPVLVIYDNTNRPSGIPDRFSGSSSGNTASLTITGAQAEDEADYYCGGYDGSTDVFGGGTKLTVL

Source: patent US20260234228A1 (GENOME, published 2026)
